Laboratory results reported in PMC4030953, “Pyranose Dehydrogenase from Agaricus campestris and Agaricus xanthoderma: Characterization and Applications in Carbohydrate Conversions” (Biomolecules, 2013).

Key:
Test in all cases: spectrophotometric electron acceptor reduction
Details in all cases: apparent, 25 mM D-glucose, pH 4, 30 °C
[1] = substrate: O=C1C(Cl)=CC(=Nc2ccc(O)cc2)C=C1Cl; type: biochemical, Agaricus campestris
Description: (§1) spectrophotometric electron acceptor reduction on AcPDH

[2] = substrate: O=C1C=CC(=O)C=C1; type: biochemical, Agaricus campestris
Description: as §1

[3] = substrate: O=C1C(Cl)=CC(=Nc2ccc(O)cc2)C=C1Cl; type: biochemical, Agaricus xanthodermus
Description: (§2) spectrophotometric electron acceptor reduction on AxPDH

[4] = substrate: O=C1C=CC(=O)C=C1; type: biochemical, Agaricus xanthodermus
Description: as §2

B1: AcPDH (Agaricus campestris) (protein)
chain: AITYQHPDDLPGDVDYDFIVAGGGTAGLVVASRLGENSKWNVLVIEAGPSNKDVFATRVPGLAETLPTSHIDWNYTTVPQQALGGRSLNYSRAMILGGCSTHNGMVYTRGSKDDWNKWADVTGNRDLSWDSILPIMKKVEKFSEDFSDQSVEGHIDPSVHGNDGKLSVVASYTNVSFNDLLLETTKELVDEFPFKLDMNDGNPVGLTWNQYTIDHNAERSSSATAYLESTGDNVHVLLNTRVTRIVPTGKTNFRTVEFAVDAGGPRKQLTAKKEVILSGGFIASPQILMNSGIGDQEALKAVGVDTLVNNPSVGKNVSDQAATLVLFDTTLPNTDFDVDAAIVEWNNSHAGPLATGAPLNHLIWVRLSDDKLSGSDPSSGKDSPHIEFQFSKISHRIPPANVPNQVALPSQDSIGVVIQFSVVNLNSISRGSVSLNDNNPFSHPLIDLNMLGEEQDIAILREGVHSARRMLSSEAFKPFVNGSVHPPANITSDEDLDAFLHTTTKSYLHGVGTLSMSPQNASWGVVDPDFRVKGTTGLRVVDASVIPSVPAGHTQTPVYAFAEYASIVIAKSYN
Km [1]: 110 ± 0 µM | kcat [1]: 10.6 ± 0.57 s⁻¹ | kcat/Km [1]: 96000 M⁻¹ s⁻¹ | Km [2]: 120 ± 10 µM | kcat [2]: 34.8 ± 1.02 s⁻¹ | kcat/Km [2]: 303000 M⁻¹ s⁻¹

B2: AxPDH (Agaricus xanthodermus) (protein)
chain: AITYQHPDDLPSNVNYDFIVAGGGTAGLVVASRLSENSDWNILVIEAGPSNKDTPETRVPGLADSLPGSRTDWNYTTIPQDALGGRSLNYSRAKVLGGCSTHNGMVYTRGSEDDWNYWAEVTGDQALSWDSVLPIMKKAEKFSQDFSDQSVDGHIDPAVHGRDGLLSVVASYTNVSFNDLLLQTTKELSDEFPFKLDLNDGKPHELAWTQYTIDHNAERSSSATSYLETTGDNVHVLVNTHVTRIVSAGNGTNFRSVEFAVDSNSPKKVLQAKKELILSAGVIASPQVLMNSGIGGREELQAIGVDTLIDNPSVGKNLSDQAATLLMFDTTLPNTDYDVAAALTEWDKSRSGPMAHGARLNHLTWVRLPDDKLNGSDPSSGKDSPHIEFQFRQISHQLPPADVPNQVQLPDPDSIGVVLQFSVVNLYSISPGSVILNDNDPFANPMIDLNMFGDQKDIAILREGVRSARRMFSSPAFKDVINGTVYPPADVTSDEDLDAFLRTSAESYWHGVGTLSMSPQNASWGVVNPDFRVKGTSGLRVVDASVIPRAPAGHTQVPVYTFAEHASVLIAASYH
Km [3]: 90 ± 10 µM | kcat [3]: 7.65 ± 0.66 s⁻¹ | kcat/Km [3]: 85000 M⁻¹ s⁻¹ | Km [4]: 3250 ± 510 µM | kcat [4]: 12.9 ± 1.56 s⁻¹ | kcat/Km [4]: 4000 M⁻¹ s⁻¹
